Test results from patent US20110104788A1 (published 2011).

B2: mouse coagulation factor X (enzyme)
chain: ANSFFEEFKKGNLERECMEEICSYEEVREIFEDDEKTKEYWTKYKDGDQCESSPCQNQGACRDGIGGYTCTCSEGFEGKNCELFVRKLCRLDNGDCDQFCREEQNSVVCSCASGYFLGNDGKSCISTAPFPCGKITTGRRKRSVALNTSDSELDLEDALLDEDFLSPTENPIELLNLNETQPERSSDDLVRIVGGRECKDGECPWQALLINEDNEGFCGGTILNEFYILTAAHCLHQARRFKVRVGDRNTEKEEGNEMVHEVDVVIKHNKFQRDTYDYDIAVLRLKTPITFRMNVAPACLPQKDWAESTLMTQKTGIVSGFGRTHEKGRQSNILKMLEVPYVDRNTCKLSTSFSITQNMFCAGYEAKLEDACQGDSGGPHVTRFKNTYYVTGIVSWGEGCARKGKYGIYTKVTTFLKWIDRSMKARVGPTAETPRTAGPPN

Tests used:
[1] = target: T1, adenovirus serotype 5 (Ad5) virus particle (human adenovirus serotype 5, UniProt P04133 1-952); test: SPR; biotinylated EGF2-SP FXa coupled to SA chip, Ad5 injected
T1 construct: also called Ad5CMVlacZ (control virus with unmodified hexon); intact virus Ad5

[2] = target: Ixolaris, 12 kDa two-Kunitz domain protein isolated from tick salivary gland (tick, UniProt Q964Q0 27-165)
[3] = target: T2, human coagulation factor X (FX), full-length zymogen (human, UniProt P00742 41-488, genetically encoded glutamic acid residues of the Gla domain converted to γ-carboxyglutamic acid); test: SPR (Biacore T100); human FX immobilised on CM5 chip, inhibitor injected; heterogeneous ligand model
T2 construct: mature; also called human FX; hFX

[4] = target: B2; test: SPR (Biacore T100); mouse FX immobilised on CM5 chip, inhibitor injected; heterogeneous ligand model

B1: human FXa mutant containing the C-terminal EGF2-SP domain (EGF2-SP FXa) (enzyme)
chain: TRKLCSLDNGDCDQFCHEEQNSVVCSCARGYTLADNGKACIPTGPYPCGKQTLERIVGGQECKDGECPWQALLINEENEGFCGGTILSEFYILTAAHCLYQAKRFKVRVGDRNTEQEEGGEAVHEVEVVIKHNRFTKETYDFDIAVLRLKTPITFRMNVAPACLPERDWAESTLMTQKTGIVSGFGRTHEKGRQSTRLKMLEVPYVDRNSCKLSSSFIITQNMFCAGYDTKQEDACQGDSGGPHVTRFKDTYFVTGIVSWGEGCARKGKYGIYTKVTAFLKWIDRSMKTRGLPKAKSHAPEVITSSPLK
modifications: biotinylated with biotin-FPRCK
notes: domain: EGF2-SP; also called EGF2-SP fragment; rFX EGF2-SP
B1: no binding [1].

Binder B2 has a Kd [2] of 0.000515 nM, a koff [2] of 8.1e-07 s⁻¹ and a kon [2] of 1.57e+06 M⁻¹ s⁻¹.

B3: Factor X-binding protein (X-bp) from Deinagkistrodon acutus (other)
chain 1: DCSSGWSSYEGHCYKVFKQSKTWADAESFCTKQVNGGHLVSIESSGEADFVGQLIAQKIKSAKIHVWIGLRAQNKEKQCSIEWSDGSSISYENWIEEESKKCLGVHIETGFHKWENFYCEQQDPFVCEA
chain 2: DCPSDWSSYEGHCYKPFNEPKNWADAENFCTQQHTGSHLVSFQSTEEADFVVKLAFQTFDYGIFWMGLSKIWNQCNWQWSNAAMLKYTDWAEESYCVYFKSTNNKWRSITCRMIANFVCEFQA
B3 showed a Kd [3] of 0.118 nM, a koff [3] of 0.00023 s⁻¹ and a kon [3] of 1.96e+06 M⁻¹ s⁻¹. It also gave a Kd [4] of 1.04 nM, a koff [4] of 0.00031 s⁻¹ and a kon [4] of 296000 M⁻¹ s⁻¹.
